Assay results: publication PMC10842004
“And” between values parts separate entries of the source, which are not always exact repeats. Equal entries are not always repeated. Blank lines part the entries; values can stand above or below the substance they belong to.

Assays:
[1] = biological target: single point mutations in RAD23A UBA1 or UBA2 (as tested with Pol κ); test: co-IP
[2] = biological target: single point mutations in RAD23A UBA1 or UBA2 (as tested with Rev1); test: co-IP
[3] = biological target: His Pol ι aa 1–419 (catalytic domain of Pol ι) (human); test: MST
[4] = biological target: single point mutations in RAD23A UBA1 or UBA2 (as tested with Pol ι); test: co-IP
[5] = biological target: FLAG-RAD23A lacking UBA1 (human) (UniProt P54725); test: co-IP

HA-tagged REV1, sequence (Q9UBZ9 whole entry): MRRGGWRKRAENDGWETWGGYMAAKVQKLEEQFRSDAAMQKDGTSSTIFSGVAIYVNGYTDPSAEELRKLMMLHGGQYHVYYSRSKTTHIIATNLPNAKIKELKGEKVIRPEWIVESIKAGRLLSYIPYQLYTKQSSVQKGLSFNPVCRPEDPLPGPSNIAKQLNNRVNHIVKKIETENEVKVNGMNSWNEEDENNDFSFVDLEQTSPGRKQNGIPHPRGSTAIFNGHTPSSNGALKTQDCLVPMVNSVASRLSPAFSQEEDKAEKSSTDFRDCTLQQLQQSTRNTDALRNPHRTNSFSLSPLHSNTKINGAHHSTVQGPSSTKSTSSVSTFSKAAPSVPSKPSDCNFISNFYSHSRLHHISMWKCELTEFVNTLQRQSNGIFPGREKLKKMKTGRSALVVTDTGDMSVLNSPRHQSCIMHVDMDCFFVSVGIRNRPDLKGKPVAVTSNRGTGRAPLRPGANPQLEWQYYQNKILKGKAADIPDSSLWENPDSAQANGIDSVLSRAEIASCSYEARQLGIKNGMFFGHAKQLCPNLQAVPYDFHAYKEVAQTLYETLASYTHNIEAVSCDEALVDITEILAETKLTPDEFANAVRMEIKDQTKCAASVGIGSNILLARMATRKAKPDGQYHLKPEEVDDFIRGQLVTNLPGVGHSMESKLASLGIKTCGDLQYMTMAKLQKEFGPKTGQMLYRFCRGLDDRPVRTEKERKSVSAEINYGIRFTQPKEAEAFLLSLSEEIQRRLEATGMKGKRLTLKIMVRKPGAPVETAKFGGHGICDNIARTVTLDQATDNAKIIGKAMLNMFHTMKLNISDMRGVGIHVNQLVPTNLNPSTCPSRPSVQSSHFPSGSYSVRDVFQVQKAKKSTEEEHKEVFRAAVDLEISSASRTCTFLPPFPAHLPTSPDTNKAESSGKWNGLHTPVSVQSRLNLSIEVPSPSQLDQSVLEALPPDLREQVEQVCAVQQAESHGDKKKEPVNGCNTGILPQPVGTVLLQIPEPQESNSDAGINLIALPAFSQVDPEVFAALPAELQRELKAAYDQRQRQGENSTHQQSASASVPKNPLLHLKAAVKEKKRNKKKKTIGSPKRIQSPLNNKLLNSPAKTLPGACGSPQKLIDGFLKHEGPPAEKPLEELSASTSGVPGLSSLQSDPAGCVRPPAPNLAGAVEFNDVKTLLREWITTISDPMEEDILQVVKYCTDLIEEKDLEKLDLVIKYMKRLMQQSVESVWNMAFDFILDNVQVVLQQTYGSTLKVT
HA-tagged Pol κ, sequence (Q9UBT6 whole entry): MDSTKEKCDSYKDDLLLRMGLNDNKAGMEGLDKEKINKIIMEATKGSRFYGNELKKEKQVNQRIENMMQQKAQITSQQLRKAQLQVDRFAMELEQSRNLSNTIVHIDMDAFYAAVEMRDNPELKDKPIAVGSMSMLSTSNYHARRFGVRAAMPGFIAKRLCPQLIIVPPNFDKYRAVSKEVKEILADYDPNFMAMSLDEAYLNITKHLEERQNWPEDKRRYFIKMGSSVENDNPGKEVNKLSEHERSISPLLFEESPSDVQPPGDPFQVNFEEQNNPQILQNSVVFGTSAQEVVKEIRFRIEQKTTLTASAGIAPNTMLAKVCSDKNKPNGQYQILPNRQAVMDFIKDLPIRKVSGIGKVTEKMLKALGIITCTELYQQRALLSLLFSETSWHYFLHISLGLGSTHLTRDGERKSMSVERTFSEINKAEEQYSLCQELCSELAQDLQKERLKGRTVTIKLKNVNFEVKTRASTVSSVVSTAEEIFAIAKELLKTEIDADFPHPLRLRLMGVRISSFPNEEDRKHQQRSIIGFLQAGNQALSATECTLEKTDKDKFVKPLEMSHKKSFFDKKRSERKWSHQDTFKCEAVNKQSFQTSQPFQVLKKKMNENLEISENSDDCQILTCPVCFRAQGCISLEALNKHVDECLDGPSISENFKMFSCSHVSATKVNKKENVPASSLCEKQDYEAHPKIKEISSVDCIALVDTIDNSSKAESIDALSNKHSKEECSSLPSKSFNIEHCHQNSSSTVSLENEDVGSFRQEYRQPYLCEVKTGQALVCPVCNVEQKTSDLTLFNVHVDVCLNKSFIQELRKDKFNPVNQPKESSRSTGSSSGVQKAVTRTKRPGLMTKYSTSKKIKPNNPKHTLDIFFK

percent disruption of binding against WT RAD23A [1]: 40% and 60%
Substance: HA-tagged Pol κ (from UniProt Q9UBT6 1-870) (enzyme)

percent disruption of binding against WT RAD23A [2]: 70 to 80%
Substance: HA-tagged REV1 (from UniProt Q9UBZ9 1-1251) (enzyme)

Kd [3]: 90 µM
Substance: RAD23A ΔUBL fragment (domain or fragment)

percent disruption of binding against WT RAD23A [4]: 40% and 60% | percent reduction of binding against WT RAD23A [5]: 75 to 85%
Substance: WT HA-Pol ι (enzyme)
